Source: paper doi:10.1101/2021.07.07.451367 (bioRxiv, 2021)

Target: T1, mNG::aPKC (C. elegans (endogenous in zygotes), UniProt Q19266 1-597)
T1 sequence (looked up): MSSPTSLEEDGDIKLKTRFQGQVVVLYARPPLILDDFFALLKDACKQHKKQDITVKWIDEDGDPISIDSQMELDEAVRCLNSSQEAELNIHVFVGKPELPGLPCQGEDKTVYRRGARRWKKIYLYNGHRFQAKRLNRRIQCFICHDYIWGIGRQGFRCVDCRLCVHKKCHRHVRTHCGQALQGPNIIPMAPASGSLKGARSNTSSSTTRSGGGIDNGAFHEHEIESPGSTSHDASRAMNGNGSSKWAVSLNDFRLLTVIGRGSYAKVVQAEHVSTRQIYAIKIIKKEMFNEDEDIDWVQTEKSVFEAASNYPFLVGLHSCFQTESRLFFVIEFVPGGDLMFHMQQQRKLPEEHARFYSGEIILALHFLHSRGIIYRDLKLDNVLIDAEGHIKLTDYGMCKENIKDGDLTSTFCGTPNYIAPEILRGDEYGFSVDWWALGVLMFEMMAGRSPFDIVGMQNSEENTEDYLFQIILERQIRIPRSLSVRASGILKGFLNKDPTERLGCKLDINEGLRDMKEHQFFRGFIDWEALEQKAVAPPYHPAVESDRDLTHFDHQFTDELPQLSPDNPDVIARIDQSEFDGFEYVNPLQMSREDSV
Assay: single-cell single-molecule pull-down

- koff: 0.002 s⁻¹
B1: PAR-6::HaloTag (natural protein, C. elegans (endogenous in zygotes), UniProt Q9NAN2 1-309, looked up)
chain: MSYNGSYHQNHHSTLQVKSKFDSEWRRFSIPMHSASGVSYDGFRSLVEKLHHLESVQFTLCYNSTGGDLLPITNDDNLRKSFESARPLLRLLIQRRGESWEEKYGYGTDSDKRWKGISSLMAQKPPKRSYSISNPEDFRQVSAIIDVDIVPEAHRRVRLCKHGQERPLGFYIRDGTSVRVTERGVVKVSGIFISRLVDGGLAESTGLLGVNDEVLEVNGIEVLGKTLDQVTDMMVANAHNLIITVKPANQRNTLSRGPSQQGTPNASEMSAATAAATGGIQRPMKMNGSSDGSYHPKQHDANDSDSGED
modifications: HaloTag labelled with HaloTag ligand dye JF646, JFX646 or JFX650
